Test results taken from paper PMC5567992.

What was measured:
[1] = biological target: CNTNW^N149S,E332A (Neisseria wadsworthii); assay: crystal structure
[2] = biological target: concentrative nucleoside transporter from Neisseria wadsworthii (CNTNW), wild type (Neisseria wadsworthii); assay: crystal structure
[3] = biological target: MBP-CNTNW^T243C,C364S,K388C (outward-facing cross-linking mutant) (Neisseria wadsworthii); assay: cross-linking
[4] = biological target: CNTNW^N149L (Neisseria wadsworthii); assay: crystal structure
[5] = biological target: CNTNW^N149S,F366A (Neisseria wadsworthii); assay: crystal structure
[6] = biological target: MBP-CNTNW^T243C,C364S,A373C (inward-facing cross-linking mutant) (Neisseria wadsworthii); assay: cross-linking
[7] = biological target: CNTNW^N149L, SeMet labelled (Neisseria wadsworthii); assay: crystal structure

## CNTNW^N149S,E332A (natural protein)
[1]
  stoichiometry N: 3

## concentrative nucleoside transporter from Neisseria wadsworthii (CNTNW), wild type (natural protein)
[2]
  stoichiometry N: 3

## MBP-CNTNW^T243C,C364S,K388C (outward-facing cross-linking mutant) (natural protein)
[3]
  stoichiometry N: 3

## CNTNW^N149L (natural protein)
[4]
  stoichiometry N: 3

## CNTNW^N149S,F366A (natural protein)
[5]
  stoichiometry N: 3

## MBP-CNTNW^T243C,C364S,A373C (inward-facing cross-linking mutant) (natural protein)
[6]
  stoichiometry N: 3

## CNTNW^N149L, SeMet labelled (natural protein)
[7]
  stoichiometry N: 3
